{"source": "patent US9273095B2", "about": "“Antibiotic peptide and preparation method therefor and application therefor” (priority 2011, dated 2016)", "key": {"[1]": {"assay": "Circular dichroism (CD) spectroscopy, helical structure", "format": "physicochemical", "settings": "50% trifluoroethanol (TFE), 5° C."}, "[2]": {"assay": "RP-HPLC temperature profiling: hydrophobicity and self-association", "format": "physicochemical", "method": "Peptides are analyzed on an Agilent 1200 series liquid chromatograph (Little Falls, Del.). Runs are performed on a Zorbax 300 SB-C8 column (150×4.6 mm I.D.; 5 μm particle size, 300 Å pore size) from Agilent Technologies using linear AB gradient (1% acetonitrile/min) and a flow rate of 1 ml/min, where solvent A is 0.05% aqueous TFA, pH 2 and solvent B is 0.05% TFA in acetonitrile.\nWe further use temperature profiling during RP-HPLC to determine the self-association ability of various analogs of PL-13 (SEQ ID NO: 1) which would occur through interaction of the non-polar faces of these amphipathic peptides α-helices. We use 50% TFE aqueous acetonitrile and hydrophobic conditions in the reversed-phase column (hydrophobic stationary phase and the hydrophobic organic solvent in the mobile phase) since the hydrophobic environment of a reversed-phase column also could induce α-helical structure. Since its introduction, the technique of RP-HPLC temperature profiling has been applied on several types of molecules, including cyclic β-sheet peptides, monomeric α-helices and α-helices that dimerize, as well as α-helices that dimerize to form coiled-coils. Although peptides are eluted from a reversed-phase column mainly by an adsorption/desorption mechanism, even a peptide strongly bound to a hydrophobic stationary phase will partition between the matrix and the mobile phase when the acetonitrile content becomes high enough during gradient elution. In summary, the mechanism is based on four assumptions: (i) at low temperature, just as an amphipathic α-helical peptide is able to dimerize in aqueous solution (through its hydrophobic, non-polar face), it will dimerize in solution during partitioning in reversed-phase chromatography; (ii) at higher temperatures, the monomer-dimer equilibrium favors the monomer as the dimer is disrupted; (iii) at sufficiently high temperatures, only monomer is present in solution; and (iv) peptide is always bound in its monomeric helical form to the hydrophobic stationary phase, i.e., the dimer can only be present in solution and disruption of the dimer is required for rebinding to the RP-HPLC matrix.\n([θ]222=−3,950). Since peptide C is a monomeric random coil peptide in both aqueous and hydrophobic media, its retention behavior over the temperature range 5-80° C. represents only general temperature effects on peptide retention behavior, i.e., a linear decrease in peptide retention time with increasing temperature due to greater solute diffusivity and enhanced mass transfer between the stationary and mobile phases at higher temperatures. Thus, after normalization to the retention times of peptide C, the retention behavior of the peptides only represents peptide self-association ability. Note that the higher the PA value, the greater the self-association ability. The order of peptide self-association ability of the three pairs of peptide enantiomers is identical to the order of peptide hydrophobicity. Apart from the decrease in retention time due to the general temperature effects noted above, destruction of the α-helix will also occur with increasing temperature, resulting in reduced retention times as the peptides become increasingly random coils.\nThe retention time data for the peptides is shown in Table 6 which records retention times at 5° C., the maximal retention times and retention times at 80° C. during the temperature profiling. Temperatures of 5-80° C. are the lower and upper temperature limits of temperature profiling in RP-HPLC, representing polymerization of the peptides at 5° C. and the monomerization of peptides at 80° C. due to denaturation of peptides by high temperature and dissociation of the polymers. The maximal retention times represent the threshold points at which peptides totally transform from polymeric to monomeric form. […]"}}, "data": [{"substance": "Ac-ELEKGGLEGEKGGKELEK-amide (Ac-ELEKGGLEGEKGGKELEK-NH2) [reference compound]", "values": [{"measurement": "[θ]222", "setting": "[1]", "result": "−3,950"}, {"measurement": "tR(min) 5° C.", "setting": "[2]; RP-HPLC temperature profiling, 5° C.", "result": 22.56, "unit": "min"}, {"measurement": "tR(min) 80° C.", "setting": "[2]; RP-HPLC temperature profiling, 80° C.", "result": 19.91, "unit": "min"}, {"measurement": "tR(min) Max", "setting": "[2]; maximal retention time during temperature profiling 5-80° C.", "result": 22.56, "unit": "min"}]}]}
